According to IntAct's records for PubMed 16247757:

B1: Lamina-associated polypeptide 2, isoform alpha (Homo sapiens), P42166 (parent)
chain: MPEFLEDPSVLTKDKLKSELVANNVTLPAGEQRKDVYVQLYLQHLTARNRPPLPAGTNSKGPPDFSSDEEREPTPVLGSGAAAAGRSRAAVGRKATKKTDKPRQEDKDDLDVTELTNEDLLDQLVKYGVNPGPIVGTTRKLYEKKLLKLREQGTESRSSTPLPTISSSAENTRQNGSNDSDRYSDNEEGKKKEHKKVKSTRDIVPFSELGTTPSGGGFFQGISFPEISTRPPLGSTELQAAKKVHTSKGDLPREPLVATNLPGRGQLQKLASERNLFISCKSSHDRCLEKSSSSSSQPEHSAMLVSTAASPSLIKETTTGYYKDIVENICGREKSGIQPLCPERSHISDQSPLSSKRKALEESESSQLISPPLAQAIRDYVNSLLVQGGVGSLPGTSNSMPPLDVENIQKRIDQSKFQETEFLSPPRKVPRLSEKSVEERDSGSFVAFQNIPGSELMSSFAKTVVSHSLTTLGLEVAKQSQHDKIDASELSFPFHESILKVIEEEWQQVDRQLPSLACKYPVSSREATQILSVPKVDDEILGFISEATPLGGIQAASTESCNQQLDLALCRAYEAAASALQIATHTAFVAKAMQADISQAAQILSSDPSRTHQALGILSKTYDAASYICEAAFDEVKMAAHTMGNATVGRRYLWLKDCKINLASKNKLASTPFKGGTLFGGEVCKVIKKRGNKH

Variants of: B1
Settings: with lmna_human LMNA

Variant	effect of a mutation on the interaction
R690C	decreasing interaction
